Assay results published in PMC8692352 (2023).

T1: plasminogen (Homo sapiens, UniProt P00747)
T1 chain: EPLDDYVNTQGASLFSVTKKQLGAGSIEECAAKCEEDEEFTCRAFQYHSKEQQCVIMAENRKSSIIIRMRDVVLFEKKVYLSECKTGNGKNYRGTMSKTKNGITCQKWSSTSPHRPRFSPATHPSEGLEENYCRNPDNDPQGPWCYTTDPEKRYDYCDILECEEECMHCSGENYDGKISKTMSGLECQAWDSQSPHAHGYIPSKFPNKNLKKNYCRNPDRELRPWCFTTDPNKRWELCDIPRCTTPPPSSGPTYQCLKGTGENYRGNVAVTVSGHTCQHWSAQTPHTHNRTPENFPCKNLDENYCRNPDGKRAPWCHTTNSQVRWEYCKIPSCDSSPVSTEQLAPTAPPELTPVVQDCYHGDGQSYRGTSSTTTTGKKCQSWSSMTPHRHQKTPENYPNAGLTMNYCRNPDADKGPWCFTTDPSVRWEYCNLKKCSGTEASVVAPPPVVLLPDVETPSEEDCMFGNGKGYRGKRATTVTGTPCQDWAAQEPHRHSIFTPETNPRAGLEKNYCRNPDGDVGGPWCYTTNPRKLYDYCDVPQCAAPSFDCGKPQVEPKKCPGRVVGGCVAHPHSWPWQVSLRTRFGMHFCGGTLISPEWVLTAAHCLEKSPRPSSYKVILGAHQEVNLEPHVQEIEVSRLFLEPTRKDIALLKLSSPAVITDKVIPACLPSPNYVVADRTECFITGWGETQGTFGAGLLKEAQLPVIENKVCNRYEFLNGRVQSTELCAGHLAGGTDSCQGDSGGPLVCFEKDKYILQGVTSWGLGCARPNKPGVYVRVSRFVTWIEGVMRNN

B1: β-globin chain (protein)
chain: not shown
B2: tPA (protein)
chain: SYQVICRDEKTQMIYQQHQSWLRPVLRSNRVEYCWCNSGRAQCHSVPVKSCSEPRCFNGGTCQQALYFSDFVCQCPEGFAGKCCEIDTRATCYEDQGISYRGTWSTAESGAECTNWNSSALAQKPYSGRRPDAIRLGLGNHNYCRNPDRDSKPWCYVFKAGKYSSEFCSTPACSEGNSDCYFGNGSAYRGTHSLTESGASCLPWNSMILIGKVYTAQNPSAQALGLGKHNYCRNPDGDAKPWCHVLKNRRLTWEYCDVPSCSTCGLRQYSQPQFRIKGGLFADIASHPWQAAIFAKHRRSPGERFLCGGILISSCWILSAAHCFQERFPPHHLTVILGRTYRVVPGEEEQKFEVEKYIVHKEFDDDTYDNDIALLQLKSDSSRCAQESSVVRTVCLPPADLQLPDWTECELSGYGKHEALSPFYSERLKEAHVRLYPSSRCTSQHLLNRTVTDNMLCAGDTRSGGPQANLHDACQGDSGGPLVCLNDGRMTLVGIISWGLGCGQKDVPGVYTKVTNYLDWIRDNMRP
B3: hemoglobin A (protein)
chain 1: not shown
chain 2: not shown
B4: α-globin chain (protein)
chain: not shown

Biological target: T1, plasminogen
Experiment: SPR

Binder | Kd
B1 | 4 µM
B2 | 0.048 µM
B3 | 3.6 µM
B4 | 0.093 µM
